Results from patent US20260022144A1, “ANALGESIC POLYPEPTIDE” (Shanghai Puyou Biomedical Co., Ltd., priority 2022, published 2026).

B1: SEQ ID NO: 75: artificial polypeptide of formula (I) X-Y (protein)
chain: SEKKQPVDLGLLEEDDEFEEFPAEDWAGLDEDEDAHVWEDNWDDDNVEDDFSNQLRATVLLMILVAETPYGAYV
B2: SEQ ID NO: 28: polypeptide of SEQ ID NO: 28 for treating or preventing peripheral neuropathic pain (protein)
chain: SEKKQPVDLGLLEEDDEFEEFPAEDWAGLDEDEDAHVWEDNWDDDNVEDDFSNQLRATVLLMILVCETPYGCYVLHQKGRMCSAFLCC
B3: SEQ ID NO: 57: artificial polypeptide of formula (I) X-Y; also listed for peripheral neuropathic pain (protein)
chain: SEKKQPVDLGLLEEDDEFEEFPAEDWAGLDEDEDAHVWEDNWDDDNVTSDFSNQLRATVLLMI
B4: SEQ ID NO: 49: artificial polypeptide of formula (III) X-Y (protein)
chain: STKKQPVDLGLLETDSEFTEFPATSWAGLSESESAHVWTSNWDSSNVTSDFSNQLRATVLLMILVCETPYGCYVLHQKGRMCSAFLCC
B5: SEQ ID NO: 93: artificial polypeptide of formula (VI) or (I) X-Y (protein)
chain: SEKKQPVDLGLLEEDDEFEEFPAEDWAGLDEDESAHVWEDNWDDDNVTSDFSNQLRATVLLMILVAETPYGAYVLHQKGRMASAFLAA
B6: SEQ ID NO: 90: artificial polypeptide of formula (VI) X-Y (protein)
chain: STKKQPVDLGLLETDSEFTEFPATSWAGLSESESAHVWTSNWDSSNVTSDFSNQLRATVLLMILVAETPYGAYVLHQKGRMASAFLAA

These molecules were tested on VZV-induced pain model in rats (assay: VZV-induced pain model in rats, mechanical allodynia (von Frey) test). Conditions: 10 mg polypeptide/kg i.v., single administration, tested 0.5 h after administration.
Format: in vivo, rat
Method: A summary of the method for inducing pain model in rats by means of subcutaneous VZV inoculation is provided hereinafter. Briefly, male Sprague Dawley (SD) rats were deeply anesthetized by intraperitoneal injection of a Zoletil R: 50 (30 mg/kg)/xylazine (6 mg/kg) anesthetic at an injection volume of 6 mL/kg, and then the virus inoculation was performed by subcutaneous injection at the footpad area. The infection dose was 22800 TCID50 per animal, and the infection volume was 150 μL for all rats.
Administration was performed on alternate days. Briefly, the test articles were administered by subcutaneous injection at the footpad area on Day 1 and Day 3, respectively. As for Group 2, the administration of SEQ ID NO: 29 was initiated from the first concentration. Namely, the first concentration (10 μg/mL) was administered on Day 1, and the second concentration (20 μg/mL) was administered on Day 3. Pain was measured once after each administration.
Mechanical allodynia tests (also called “von Frey tests”) for pain measurements were performed on the rats one hour after administration of the test articles on Day 1 and Day 3, respectively. In the behavioral test for rats, mechanical allodynia is expressed as the 50% paw withdrawal threshold (PWT), which is calculated according to the following formula:
[formula] • wherein • Xf=final test fiber value used in the test • k=tabular value for the pattern of positive/negative responses (Chaplan et al. 1994, page 62) • δ=mean difference.
Briefly, the rats were placed individually in plexiglass boxes with a grid at the bottom to ensure that the rats' feet could be tested. The rats were acclimated to the environment for 15 minutes prior to the test. After the acclimation was completed, pain (mechanical allodynia) was tested on the center of the sole of the left hind foot of the rats using test fibers. The test fibers included 8 test strengths: 3.61 (0.4 g), 3.84 (0.6 g), 4.08 (lg), 4.31 (2 g), 4.56 (4 g), 4.74 (6 g), 4.93 (8 g) and 5.18 (15 g). During the test, the test fibers were pressed vertically against the skin and forces were applied to bend the fibers for 6-8 seconds with a 5-second interval between each test. During the test, a pain response was recorded if the animals quickly withdrew their feet. The pain response was also recorded if the animal withdrew their feet as the test fibers left the animal's skin. The pain response was not recorded if the animal moved or ambulated, and the test should be repeated. The test was started with 4.31 (2 g). If the animal had pain response, the next test should be performed with a test fiber with a lower strength: if the animal has no pain response, the next test should be performed with a test fiber with a higher strength. The maximum strength of the tested fibers was 5.18 (15 g). The test results were recorded in a table, wherein the presence of pain response was recorded as “x”, and the absence of pain response was recorded as “0”.
The rats were randomly divided into 2 groups, with 8 rats in the placebo group (Group 1, administered with vehicle (normal saline)) and 8 rats in the treatment group (Group 2, administered with 30 mg SEQ ID NO: 29/kg). Briefly, the test articles were administered to the rats on a single day by intravenous injection.
Mechanical allodynia tests were performed on the rats 0.5 h after administration of the test articles according to the method as recited in Example 1, respectively.
The rats were randomly divided into 3 groups, with 8 rats in the placebo group (Group 1, administered with vehicle (normal saline)) and 16 rats in the treatment groups (Groups 2 and 3, 8 rats/group, administered with various polypeptides). Briefly, vehicle (normal saline) was administered to the rats from Group 1 and various polypeptides were administered to the rats from Group 2 (SEQ ID: 29, SEQ ID: 57 and SEQ ID: 49; 10 mg polypeptide/kg) and 3 (SEQ ID: 75 and SEQ ID: 28: 10 mg polypeptide/kg) on a single day by intravenous injection.

Molecule | analgetic effect (50% PWT)
B1 | apparent analgetic effect
B2 | apparent analgetic effect
B3 | apparent analgetic effect
B4 | apparent analgetic effect

Each molecule was assayed on SNL pain model in rats (assay: SNL (spinal nerve ligation) pain model in rats, mechanical allodynia test). Conditions: SD rats, i.v. single administration (SEQ ID NO: 29 30 and 60 mg/kg; SEQ ID NO: 90 and 93 60 mg/kg), 1 h after administration.
Format: in vivo, rat
Method: A summary of the method for inducing pain model in rats by means of spinal nerve ligation is provided hereinafter. Briefly, male SD rats were anesthetized with Zoletil R 50+xylazine hydrochloride (20 mg/kg+8 mg/kg, intraperitoneal injection). The surgical areas on the waist regions of the animals were shaved, and the skin was disinfected with iodophor and 70% v/v ethanol for three times. The left spinal nerves L5 and L6 of the animals were isolated, tightly ligated with 6-0 silk suture, and the wounds were sutured.
On the 11th day post operation, the animals were acclimated to the experimental environment, 15 minutes/day, for 3 consecutive days.
Briefly, after SNL modeling, 24 animals were randomly divided into 3 groups (Groups 2, 3 and 4, N=8/group). Group 1 (a Sham group, for which the 10 animals received essentially the same operation procedure as other groups but their left spinal nerves L5 and L6 were neither isolated nor ligated) was used as the control group. The test articles were administrated to the animals according to the protocol shown in Table 5, and mechanical allodynia tests were respectively performed 1h after administration according to the method as recited in Example 1.
Briefly, after SNL modeling, 30 animals were randomly divided into 3 groups (Group 1, N=6/group; Groups 2 and 3, N=12/group). Various polypeptides of the present disclosure were administered to the animals from Groups 2 and 3, and the animals were subjected to mechanical allodynia tests 1 h after administration according to the method as recited in Example 1.

Molecule | analgetic effect (50% PWT)
B5 | certain analgetic effect
B6 | certain analgetic effect
